Source: US20120316071A1 (published 2012)
Positions count from the first letter of the chain named. Numbers in names are those of the source. Blank lines part the entries; values can stand above or below the binder they belong to.

How the values were obtained:
[1] = molecular target: T1, rHuman Notch-1/Fc Chimera, CF (R&D Systems Cat#3647-TK) (human); assay: ECL Multispot (MSD), antigen spotted on plate, Fab in solution; blank spot 256
T1 chain: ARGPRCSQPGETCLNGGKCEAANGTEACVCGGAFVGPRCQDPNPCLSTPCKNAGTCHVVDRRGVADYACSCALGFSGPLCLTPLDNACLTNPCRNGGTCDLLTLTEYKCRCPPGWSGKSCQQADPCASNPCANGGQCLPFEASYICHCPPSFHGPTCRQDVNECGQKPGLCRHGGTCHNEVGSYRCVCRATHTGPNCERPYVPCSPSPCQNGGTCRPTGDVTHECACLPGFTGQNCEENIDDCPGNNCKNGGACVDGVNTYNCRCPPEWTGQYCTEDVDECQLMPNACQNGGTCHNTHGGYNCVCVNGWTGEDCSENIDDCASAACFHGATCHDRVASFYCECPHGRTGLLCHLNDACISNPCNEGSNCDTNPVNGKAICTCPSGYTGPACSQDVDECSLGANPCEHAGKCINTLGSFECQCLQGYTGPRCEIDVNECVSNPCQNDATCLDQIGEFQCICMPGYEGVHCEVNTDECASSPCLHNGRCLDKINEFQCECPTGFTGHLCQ

[2] = molecular target: T2, rHuman P-Cadherin/Fc Chimera, CF (R&D Systems Cat#861-PC) (human, UniProt P22223 108-654); assay: as above
[3] = molecular target: T3, rHuman HGF R/c-MET/Fc Chimera, CF (R&D Systems Cat#358-MT/CF) (human, UniProt P08581 25-932); assay: as above
[4] = molecular target: T4, rHuman Erythropoietin R/Fc Chimera, CF (R&D Systems Cat#963-ER) (human, UniProt P19235 25-250); assay: as above
[5] = molecular target: T5, rHuman CD44/Fc Chimera, CF (R&D Systems Cat#3660-CD) (human, UniProt P16070 21-220); assay: as above
[6] = molecular target: T1, rHuman Notch-1/Fc Chimera, CF (R&D …); assay: ECL Multispot (MSD), antigen spotted on plate, Fab in solution; blank spot 169
[7] = molecular target: T2, rHuman P-Cadherin/Fc Chimera, CF (R&D …); assay: as above
[8] = molecular target: T3, rHuman HGF R/c-MET/Fc Chimera, CF (R&D …); assay: as above
[9] = molecular target: T4, rHuman Erythropoietin R/Fc Chimera, CF …; assay: as above
[10] = molecular target: T5, rHuman CD44/Fc Chimera, CF (R&D Systems …); assay: as above
[11] = molecular target: T1, rHuman Notch-1/Fc Chimera, CF (R&D …); assay: ECL Multispot (MSD), antigen spotted on plate, Fab in solution; blank spot 331
[12] = molecular target: T2, rHuman P-Cadherin/Fc Chimera, CF (R&D …); assay: as above
[13] = molecular target: T4, rHuman Erythropoietin R/Fc Chimera, CF …; assay: as above
[14] = molecular target: T5, rHuman CD44/Fc Chimera, CF (R&D Systems …); assay: as above
[15] = molecular target: T1, rHuman Notch-1/Fc Chimera, CF (R&D …); assay: ECL Multispot (MSD), antigen spotted on plate, Fab in solution; blank spot 200
[16] = molecular target: T2, rHuman P-Cadherin/Fc Chimera, CF (R&D …); assay: as above
[17] = molecular target: T3, rHuman HGF R/c-MET/Fc Chimera, CF (R&D …); assay: as above
[18] = molecular target: T4, rHuman Erythropoietin R/Fc Chimera, CF …; assay: as above
[19] = molecular target: T5, rHuman CD44/Fc Chimera, CF (R&D Systems …); assay: as above
[20] = molecular target: T1, rHuman Notch-1/Fc Chimera, CF (R&D …); assay: ECL Multispot (MSD), antigen spotted on plate, Fab in solution; blank spot 438
[21] = molecular target: T2, rHuman P-Cadherin/Fc Chimera, CF (R&D …); assay: as above
[22] = molecular target: T3, rHuman HGF R/c-MET/Fc Chimera, CF (R&D …); assay: as above
[23] = molecular target: T4, rHuman Erythropoietin R/Fc Chimera, CF …; assay: as above
[24] = molecular target: T5, rHuman CD44/Fc Chimera, CF (R&D Systems …); assay: as above
[25] = molecular target: T1, rHuman Notch-1/Fc Chimera, CF (R&D …); assay: ECL Multispot (MSD), antigen spotted on plate, Fab in solution; blank spot 479
[26] = molecular target: T2, rHuman P-Cadherin/Fc Chimera, CF (R&D …); assay: as above
[27] = molecular target: T3, rHuman HGF R/c-MET/Fc Chimera, CF (R&D …); assay: as above
[28] = molecular target: T4, rHuman Erythropoietin R/Fc Chimera, CF …; assay: as above
[29] = molecular target: T5, rHuman CD44/Fc Chimera, CF (R&D Systems …); assay: as above
[30] = molecular target: T1, rHuman Notch-1/Fc Chimera, CF (R&D …); assay: ECL Multispot (MSD), antigen spotted on plate, Fab in solution; blank spot 239
[31] = molecular target: T2, rHuman P-Cadherin/Fc Chimera, CF (R&D …); assay: as above
[32] = molecular target: T3, rHuman HGF R/c-MET/Fc Chimera, CF (R&D …); assay: as above
[33] = molecular target: T4, rHuman Erythropoietin R/Fc Chimera, CF …; assay: as above
[34] = molecular target: T5, rHuman CD44/Fc Chimera, CF (R&D Systems …); assay: as above

T3 sequence (P08581 25-932, change not shown): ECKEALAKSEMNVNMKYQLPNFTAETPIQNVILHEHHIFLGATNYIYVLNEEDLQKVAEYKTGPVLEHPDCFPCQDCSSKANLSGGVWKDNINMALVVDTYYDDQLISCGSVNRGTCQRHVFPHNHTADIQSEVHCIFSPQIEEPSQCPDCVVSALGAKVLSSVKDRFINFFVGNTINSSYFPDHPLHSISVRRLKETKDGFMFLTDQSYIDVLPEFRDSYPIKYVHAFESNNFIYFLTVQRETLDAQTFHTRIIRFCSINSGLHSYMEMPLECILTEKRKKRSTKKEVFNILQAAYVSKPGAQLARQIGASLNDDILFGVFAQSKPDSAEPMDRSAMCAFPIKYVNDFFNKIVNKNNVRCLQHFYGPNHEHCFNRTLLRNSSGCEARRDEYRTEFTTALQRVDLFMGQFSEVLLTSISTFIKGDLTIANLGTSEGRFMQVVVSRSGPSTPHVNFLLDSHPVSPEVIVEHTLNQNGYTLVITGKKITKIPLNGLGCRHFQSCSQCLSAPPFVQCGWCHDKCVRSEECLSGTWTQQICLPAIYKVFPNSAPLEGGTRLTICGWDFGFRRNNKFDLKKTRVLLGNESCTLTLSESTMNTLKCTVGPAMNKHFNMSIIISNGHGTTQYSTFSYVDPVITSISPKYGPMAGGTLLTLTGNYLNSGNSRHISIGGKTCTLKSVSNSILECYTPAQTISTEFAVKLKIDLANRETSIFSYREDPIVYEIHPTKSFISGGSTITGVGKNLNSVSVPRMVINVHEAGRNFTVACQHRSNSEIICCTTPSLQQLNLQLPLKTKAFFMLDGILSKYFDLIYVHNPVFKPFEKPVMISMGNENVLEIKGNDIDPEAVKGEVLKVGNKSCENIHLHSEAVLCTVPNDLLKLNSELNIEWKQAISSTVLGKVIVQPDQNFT

B1: Fab VH1-46_IGHD6-6*01_IGHJ1*01 S102A/S103P/S104F/H111F (APFF) & L6_IGKJ1*01 W94R (Fab, V domains shown)
VH: QVQLVQSGAEVKKPGASVKVSCKASGYTFTSYYMHWVRQAPGQGLEWMGIINPSGGSTSYAQKFQGRVTMTRDTSTSTVYMELSSLRSEDTAVYYCAREEYAPFSAEYFQFWGQGTLVTVSS
VL: EIVLTQSPATLSLSPGERATLSCRASQSVSSYLAWYQQKPGQAPRLLIYDASNRATGIPARFSGSGSGTDFTLTISSLEPEDFAVYYCQQRSNRPPWTFGQGTKVEIKR
notes: also called APFF / W94R
ECL signal [1]: 375
ECL signal [2]: 364
ECL signal [3]: 293
ECL signal [4]: 546
ECL signal [5]: 443

B3: Fab VH1-46_IGHD6-6*01_IGHJ1*01 S102A/S103P/S104F/H111F (APFF) & L6_IGKJ1*01 N93H (Fab, V domains shown)
VH: B1 VH
VL: B1 VL with N93H, R94W
notes: also called APFF / N93H
ECL signal [11]: 342
ECL signal [12]: 293
ECL signal [13]: 425
ECL signal [14]: 345

B7: Fab VH1-46_IGHD6-6*01_IGHJ1*01 S102A/S103P/S104F/H111F (APFF) & L6_IGKJ1*01 N93Q (Fab, V domains shown)
VH: B1 VH
VL: B1 VL with N93Q, R94W
notes: also called APFF / N93Q
ECL signal [30]: 310
ECL signal [31]: 304
ECL signal [32]: 309
ECL signal [33]: 477
ECL signal [34]: 452

Now from value to binder:

ECL signal [6]: 228
ECL signal [7]: 268
ECL signal [8]: 275
ECL signal [9]: 292
ECL signal [10]: 241
B2: Fab VH1-46_IGHD6-6*01_IGHJ1*01 S102A/S103P/S104F/H111F (APFF) & L6_IGKJ1*01 W94P (Fab, V domains shown)
VH: B1 VH
VL: B1 VL with R94P
notes: also called APFF / W94P

ECL signal [15]: 369
ECL signal [16]: 296
ECL signal [17]: 187
ECL signal [18]: 333
ECL signal [19]: 309
B4: Fab VH1-46_IGHD6-6*01_IGHJ1*01 S102A/S103P/S104F/H111F (APFF) & L6_IGKJ1*01 W94L (Fab, V domains shown)
VH: B1 VH
VL: B1 VL with R94L
notes: also called APFF / W94L

ECL signal [20]: 418
ECL signal [21]: 481
ECL signal [22]: 377
ECL signal [23]: 432
ECL signal [24]: 453
B5: Fab VH1-46_IGHD6-6*01_IGHJ1*01 S102A/S103P/S104F/H111F (APFF) & L6_IGKJ1*01 W94T (Fab, V domains shown)
VH: B1 VH
VL: B1 VL with R94T
notes: also called APFF / W94T

ECL signal [25]: 486
ECL signal [26]: 466
ECL signal [27]: 453
ECL signal [28]: 506
ECL signal [29]: 469
B6: Fab VH1-46_IGHD6-6*01_IGHJ1*01 S102A/S103P/S104F/H111F (APFF) & L6_IGKJ1*01 W94S (Fab, V domains shown)
VH: B1 VH
VL: B1 VL with R94S
notes: also called APFF / W94S
